US20230071765
Positions count from the first letter of the chain named. Numbers in names are those of the source.

B1: ORP100S (fully monocysteinic human thioredoxin-1, reduced form) (protein)
chain: VKQIESKTAFQEALDAAGDKLVVVDFSATWCGPSKMIKPFFHSLSEKYSNVIFLEVDVDDSQDVASESEVKSMPTFQFFKKGQKVGEFSGANKEKLEATINELV
B2: ORP-100 (C35S monocysteinic active site thioredoxin) (protein)
chain: B1 chain with S61C, S68C, S72C

Target: human insulin (disulfide-bonded heterodimer), P01308
Sequence (P01308 whole entry, looked up, one chain of several): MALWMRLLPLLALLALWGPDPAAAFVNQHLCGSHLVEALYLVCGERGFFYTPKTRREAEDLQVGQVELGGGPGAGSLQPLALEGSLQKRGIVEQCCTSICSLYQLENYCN

Row | Protein | disulfide reduction activity by RP-HPLC (main HIC fraction after drying and reconstitution in saline) | conversion of insulin heterodimer peak (RP-HPLC insulin reduction, 0.025 mM ORP-100, pH 6, 60 min)
1 | B1 | the main fraction showed comparable disulfide reduction activity by DTNB and RP-HPLC to thioredoxin compositions purified without removing the red fraction | 
2 | B2 |  | even at acidic pH 6 ORP-100 is able to markedly reduce the insulin heterodimer peak, and at 1/500 the concentration of NAC
